Results on one substance are retold here after patent publication US20110054149A1.

This assay has as its target GST-human NOGO-A56 (human) (UniProt Q9NQC3). Kind of assay: SPR (Biacore 3000), GST-human NOGO-A56 on CM5 chip, antibody as analyte; single experiment.

Sequence of GST-human NOGO-A56 (human) (Q9NQC3 586-785): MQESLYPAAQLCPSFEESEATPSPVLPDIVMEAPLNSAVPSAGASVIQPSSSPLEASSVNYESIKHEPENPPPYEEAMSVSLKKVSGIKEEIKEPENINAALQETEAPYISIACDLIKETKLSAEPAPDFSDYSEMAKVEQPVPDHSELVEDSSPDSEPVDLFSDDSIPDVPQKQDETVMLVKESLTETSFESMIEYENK

On to 11C7 (chimeric version) (antibody), for which the dissociation constant Kd (usually the concentration at which binding is half-saturated) was determined as 0.057 nM, the koff (usually the first-order rate constant of dissociation) is 8.25e-05 s⁻¹ and the kon (commonly a measure of how fast the partners come together) is 1.44e+06 M⁻¹ s⁻¹.
